Drawing on US9579367B2, this text covers time to achieve 50% lysis of a plasma clot (turbidity, OD405nm) for one molecule.

The assay concerns the target tissue plasminogen activator (tPA).

B1: Xa-K (FXa chemically modified, via a histidine residue in its active site, with a C-terminal lysine tethered by a PEG4 spacer) (enzyme)
light: ANSFLEEMKKGHLERECMEETCSYEEAREVFEDSDKTNEFWNKYKDGDQCETSPCQNQGKCKDGLGEYTCTCLEGFEGKNCELFTRKLCSLDNGDCDQFCHEEQNSVVCSCARGYTLADNGKACIPTGPYPCGKQTLER
heavy: IVGGQECKDGECPWQALLINEENEGFCGGTILSEFYILTAAHCLYQAKRFKVRVGDRNTEQEEGGEAVHEVEVVIKHNRFTKETYDFDIAVLRLKTPITFRMNVAPACLPERDWAESTLMTQKTGIVSGFGRTHEKGRQSTRLKMLEVPYVDRNSCKLSSSFIITQNMFCAGYDTKQEDACQGDSGGPHVTRFKDTYFVTGIVSWGEGCARKGKYGIYTKVTAFLKWIDRSMKTRGLPKAKSHAPEVITSSPLK
modifications: active-site histidine (position 276 in Table A, UniProt P00742 numbering) covalently linked to (D)Phe-Pro-Arg-CH2- carrying a thiol-maleimide-PEG4 spacer with a C-terminally tethered lysine (Lys-mPEG4)
B1 registered a time to achieve 50% lysis of a plasma clot (turbidity, OD405nm) of 10 fold.
